Literature values in publication PMC7462287.

Target: Protective antigen heptamer (Bacillus anthracis) (UniProt P13423)
Test: SPR

Chain of Edema factor (P40136 34-800): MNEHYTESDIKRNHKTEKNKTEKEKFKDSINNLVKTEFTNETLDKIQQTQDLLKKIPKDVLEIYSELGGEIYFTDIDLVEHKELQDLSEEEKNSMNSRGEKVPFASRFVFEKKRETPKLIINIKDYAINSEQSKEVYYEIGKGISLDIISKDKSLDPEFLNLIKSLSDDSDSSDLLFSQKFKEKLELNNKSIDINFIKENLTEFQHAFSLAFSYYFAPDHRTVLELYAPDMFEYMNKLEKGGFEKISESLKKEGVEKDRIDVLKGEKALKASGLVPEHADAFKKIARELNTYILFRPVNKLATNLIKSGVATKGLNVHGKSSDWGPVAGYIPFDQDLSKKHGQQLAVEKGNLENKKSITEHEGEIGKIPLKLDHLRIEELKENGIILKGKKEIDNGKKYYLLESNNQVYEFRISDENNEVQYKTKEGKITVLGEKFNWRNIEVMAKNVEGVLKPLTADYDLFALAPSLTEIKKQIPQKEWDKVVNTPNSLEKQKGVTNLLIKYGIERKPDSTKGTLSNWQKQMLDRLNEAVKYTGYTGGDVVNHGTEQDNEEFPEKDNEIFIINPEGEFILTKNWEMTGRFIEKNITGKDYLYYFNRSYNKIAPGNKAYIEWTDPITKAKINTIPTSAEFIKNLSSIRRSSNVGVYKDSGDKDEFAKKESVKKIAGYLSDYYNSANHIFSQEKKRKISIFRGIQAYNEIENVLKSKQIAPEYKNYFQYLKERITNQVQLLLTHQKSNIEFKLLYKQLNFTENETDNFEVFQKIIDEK
Chain of Protective antigen heptamer (Bacillus anthracis) (P13423 197-764): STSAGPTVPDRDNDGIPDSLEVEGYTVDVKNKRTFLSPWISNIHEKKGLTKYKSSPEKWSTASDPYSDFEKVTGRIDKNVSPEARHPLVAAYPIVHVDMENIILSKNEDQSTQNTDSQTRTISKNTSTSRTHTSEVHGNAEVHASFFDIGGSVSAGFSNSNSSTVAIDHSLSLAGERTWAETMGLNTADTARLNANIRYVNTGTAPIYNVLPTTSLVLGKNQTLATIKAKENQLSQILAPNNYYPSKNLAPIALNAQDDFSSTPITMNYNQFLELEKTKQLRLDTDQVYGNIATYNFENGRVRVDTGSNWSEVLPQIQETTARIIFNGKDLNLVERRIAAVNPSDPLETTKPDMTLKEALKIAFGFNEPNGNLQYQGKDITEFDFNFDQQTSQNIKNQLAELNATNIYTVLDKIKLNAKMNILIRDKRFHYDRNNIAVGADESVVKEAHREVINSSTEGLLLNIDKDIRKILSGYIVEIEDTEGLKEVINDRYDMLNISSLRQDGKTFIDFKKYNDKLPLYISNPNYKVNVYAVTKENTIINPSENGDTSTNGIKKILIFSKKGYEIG

In the case of Edema factor (from UniProt P40136), the Kd is given as 1.5 nM.
